In patent publication US9409976B2, “CDIM binding proteins and uses thereof” (IGM BIOSCIENCES, INC., priority 2012, dated 2016):
“Also recorded” adds a separate entry of the source.

Tests used:
[1] = test system: ss DNA; experiment: ELISA binding to non-CDIM antigen ssDNA; conditions: maximal reaction (OD450 nm), IgM at 10 μg/ml
Method: (§1) This example describes the binding specificity of the CDIM binding proteins for antigens other than CDIM. The antibodies were purified by affinity chromatography. Antibodies were tested across a broad dose range against a panel of antigens available in commercially available ELISA kits. ELISA plates pre-coated with the antigens, ssDNA (Inova Diagnostics, Inc, San Diego, Calif.), dsDNA (Inova Diagnostics, Inc., San Diego, Calif.), cardiolipin (Inova Diagnostics, Inc., San Diego, Calif.) MDA-LDL (malondialdehyde modified low density lipoprotein) (Rocky Mountain Diagnostics, Colorado Springs, Colo.) were purchased from various vendors. Lipid A (Avanti Polar Lipids, Alabaster, Ala.) was purchased as an antigen, dissolved in ethanol and diluted in 100 mM Na carbonate buffer at pH 9.5 prior to coating onto ELISA plates. Anti-CDIM antibodies were used at concentrations indicated and ELISA was performed according to manufacturers recommendations. Briefly, plates were blocked with BSA-milk powder for 1 hour, followed by washing. The disclosed antibodies were added at the concentrations indicated. The antibodies were allowed to bind for 1.5 hours at room temperature followed by a wash step. The HRP-conjugated anti-human IgM antibody was added, followed by substrate addition. Results were quantified using absorbance at 450 nm (Bio-Tek Synergy HT). […]

[2] = ELISA binding to panel of antigens other than CDIM (FIGS. 8 and 9); conditions: broad dose range, absorbance at 450 nm, listed as MAb 216
From the text: FIG. 8, panels A-E depict ELISA based binding data that is representative of the CDIM binding proteins to antigens other than CDIM. Results using the antigens single stranded DNA (ssDNA), double stranded DNA (dsDNA), lipid A, cardiolipin, and maleonaldehyde LDL (MDA-LDL) are shown in panels A-E, respectively.
FIG. 9, panels A-F depict ELISA based binding data that is representative of the CDIM binding proteins to antigens other than CDIM. Results using the antigens single stranded DNA (ssDNA), double stranded DNA (dsDNA), lipopolysaccharide, cardiolipin, chondoitrin and heparan, are shown in panels A-F, respectively.
This example describes the binding specificity of the CDIM binding proteins for antigens other than CDIM. The antibodies were purified by affinity chromatography. Antibodies were tested across a broad dose range against a panel of antigens available in commercially available ELISA kits. ELISA plates pre-coated with the antigens, ssDNA (Inova Diagnostics, Inc, San Diego, Calif.), dsDNA (Inova Diagnostics, Inc., San Diego, Calif.), cardiolipin (Inova Diagnostics, Inc., San Diego, Calif.) MDA-LDL (malondialdehyde modified low density lipoprotein) (Rocky Mountain Diagnostics, Colorado Springs, Colo.) were purchased from various vendors. […] Results were quantified using absorbance at 450 nm (Bio-Tek Synergy HT).

[3] = ELISA binding to non-CDIM antigen cardiolipin; conditions: maximal reaction (OD450 nm), IgM at 10 μg/ml
Method: as §1

[4] = test system: Human pro-B NALM-6 cells; experiment: Human complement dependent cytotoxicity (CDC) assay, CCK8; type: cell-based; conditions: Nalm-6 cells with human complement, 24 hours, supernatant containing expressed antibody
From the text: “Complement-dependent cytotoxicity” or “CDC” refers to the lysis of a target cell in the presence of complement. Activation of the classical complement pathway is initiated by the binding of the first component of the complement system (CIq) to antibodies, which are bound to their cognate antigen. To assess complement activation, a CDC assay, as described in Hinton et al, J. Immunol. 2006 Jan. 1; 176(1):346-56, may be performed. Briefly, this example describes how the cytotoxicity of the CDIM binding proteins was investigated. Human pro-B NALM-6 cells (50,000) were plated in a 96-well flat bottom microtiter plate. […] After 24 hours, a colorimetric substrate CCK8 was added for 3 hours and then the optical density (OD) was measured at 450 nm wavelength on a Microtiter Plate Reader. Quantification of the increase in OD is directly proportional to viable proliferating NALM-6 cells. […] The IC50 was calculated for each antibody using the same approach as described above.
TABLE 2 summarizes the data shown in FIG. 6 and FIGS. 7A-7F for the CDIM binding proteins comprising variable heavy chains H1, H2, H3, H4, H5, H6, H7, H9, H10, H11, H12, H13, H14, H15, H16, H17, H18, H19, H20, and H21, respectively. The ELISA value refers to the concentration of IgM determined in the conditioned media following transient transfection of IgM heavy and light chains. […]

[5] = ELISA binding to non-CDIM antigen heparan sulfate; conditions: maximal reaction (OD450 nm), IgM at 10 μg/ml
Method: as §1

[6] = ELISA binding to non-CDIM antigen chondroitin sulfate; conditions: maximal reaction (OD450 nm), IgM at 10 μg/ml
[7] = ELISA binding to non-CDIM antigen LPS; conditions: maximal reaction (OD450 nm), IgM at 10 μg/ml
Method: as §1

[8] = test system: ds DNA; experiment: ELISA binding to non-CDIM antigen dsDNA; conditions: maximal reaction (OD450 nm), IgM at 10 μg/ml
Method: as §1

B1: hm216: naturally occurring human monoclonal IgM CDIM binding antibody (SEQ ID NO: 108), used as experimental reference antibody (protein)
chain: QVQLQQWGAGLLKPSETLSLTCAVYGGSFSGYYWSWIRQPPGKGLEWIGEINHSGSTNYNPSLKSRVTISVDTSKNQFSLKLSSVTAADTAVYYCARARTARGSSIFDYWGQGTLVTVSSGSASAPTLFPLVSCENSPSDTSSVAVGCLAQDFLPDSITFSWKYKNNSDISSTRGFPSVLRGGKYAATSQVLLPSKDVMQGTDEHVVCKVQHPNGNKEKNVPLPVIAELPPKVSVFVPPRDGFFGNPRKSKLICQATGFSPRQIQVSWLREGKQVGSGVTTDQVQAEAKESGPTTYKVTSTLTIKESDWLSQSMFTCRVDHRGLTFQQNASSMCVPDQDTAIRVFAIPPSFASIFLTKSTKLTCLVTDLTTYDSVTISWTRQNGEAVKTHTNISESHPNATFSAVGEASICEDDWNSGERFTCTVTHTDLPSPLKQTISRPKGVALHRPDVYLLPPAREQLNLRESATITCLVTGFSPADVFVQWMQRGQPLSPEKYVTSAPMPEPQAPGRYFAHSILTVSEEEWNTGETYTCVVAHEALPNRVTERTVDKSTGKPTLYNVSLVMSDTAGTCY
ss DNA relative reactivity [1]: ++++ (The (+), (++), (+++) and (++++) scores are given for maximal ELISA values of 0.3 to 1, 1 to 2, 2 to 3 and above 3, respectively) | Binding to antigens other than CDIM [2]: binds to all the antigens tested; also recorded: binds to all of the antigens across a broad dose range | Cardiolipin relative reactivity [3]: +++ (The (+), (++), (+++) and (++++) scores are given for maximal ELISA values of 0.3 to 1, 1 to 2, 2 to 3 and above 3, respectively) | Cytotoxicity IC50 [4]: 1.762 µg/mL | Heparan Sulfate relative reactivity [5]: ++++ (The (+), (++), (+++) and (++++) scores are given for maximal ELISA values of 0.3 to 1, 1 to 2, 2 to 3 and above 3, respectively) | Chondroitin Sulfate relative reactivity [6]: ++++ (The (+), (++), (+++) and (++++) scores are given for maximal ELISA values of 0.3 to 1, 1 to 2, 2 to 3 and above 3, respectively) | LPS relative reactivity [7]: ++++ (The (+), (++), (+++) and (++++) scores are given for maximal ELISA values of 0.3 to 1, 1 to 2, 2 to 3 and above 3, respectively) | ds DNA relative reactivity [8]: ++++ (The (+), (++), (+++) and (++++) scores are given for maximal ELISA values of 0.3 to 1, 1 to 2, 2 to 3 and above 3, respectively)
